Laboratory results as given in the DeepSol protein solubility set.

Experiment: soluble on expression in E. coli; label from the status in PepcDB or PDB records

| Sequence | soluble on expression in E. coli |
| --- | --- |
| MHHHHHHSSGRENLYFQGTFAERYNIVCMLGKGSFGEVLKCKDRITQQEYAVKVINKASAKNKDTSTILREVELLKKLDHPNIMKLFEILEDSSSFYIVGELYTGGELFDEIIKRKRFSEHDAARIIKQVFSGITYMHKHNIVHRDLKPENILLESKEKDCDIKIIDFGLSTCFQQNTKMKDRIGTAYYIAPEVLRGTYDEKCDVWSAGVILYILLSGTPPFYGKNEYDILKRVETGKYAFDLPQWRTISDDAKDLIRKMLTFHPSLRITATQCLEHPWIQKYSSETPTISDLPSLESAMTNIRQFQAEKKLAQAALLYMASKLTTLDETKQLTEIFRKLDTNNDGMLDRDELVRGYHEFMRLKGVDSNSLIQNEGSTIEDQIDSLMPLLDMDGSGSIEYSEFIASAIDRTILLSRERMERAFKMFDKDGSGKISTKELFKLFSQADSSIQMEELESIIEQVDNNKDGEVDFNEFVEMLQNFVRNE | soluble |
| MHHHHHHSSGVDLGTENLYFQSMAAGGDHGSPDSYRSPLASRYASPEMCFVFSDRYKFRTWRQLWLWLAEAEQTLGLPITDEQIREMKSNLENIDFKMAAEEEKRLRHDVMAHVHTFGHCCPKAAGIIHLGATSCYVGDNTDLIILRNALDLLLPKLARVISRLADFAKERASLPTLGFTHFQPAQLTTVGKRCCLWIQDLCMDLQNLKRVRDDLRFRGVKGTTGTQASFLQLFEGDDHKVEQLDKMVTEKAGFKRAFIITGQTYTRKVDIEVLSVLASLGASVHKICTDIRLLANLKEMEEPFEKQQIGSSAMPYKRNPMRSERCCSLARHLMTLVMDPLQTASVQWFERTLDDSANRRICLAEAFLTADTILNTLQNISEGLVVYPKVIERRIRQELPFMATENIIMAMVKAGGSRQDCHEKIRVLSQQAASVVKQEGGDNDLIERIQVDAYFSPIHSQLDHLLDPSSFTGRASQQVQRFLEEEVYPLLKPYESVMKVKAE | soluble |
| MHHHHHHSSGVDLGTENLYFQSMASSHLNKGIKQVYMSLPQGEKVQAMYIWIDGTGEGLRCKTRTLDSEPKCVEELPEWNFDGSSTLQSEGSNSDMYLVPAAMFRDPFRKDPNKLVLCEVFKYNRRPAETNLRHTCKRIMDMVSNQHPWFGMEQEYTLMGTDGHPFGWPSNGFPGPQGPYYCGVGADRAYGRDIVEAHYRACLYAGVKIAGTNAEVMPAQWEFQIGPCEGISMGDHLWVARFILHRVCEDFGVIATFDPKPIPGNWNGAGCHTNFSTKAMREENGLKYIEEAIEKLSKRHQYHIRAYDPKGGLDNARRLTGFHETSNINDFSAGVANRSASIRIPRTVGQEKKGYFEDRRPSANCDPFSVTEALIRTCLLNETG | soluble |
| MHHHHHHSSGVDLGTENLYFQSMMASQNSFRIEYDTFGELKVPNDKYYGAQTVRSTMNFKIGGVTERMPTPVIKAFGILKRAAAEVNQDYGLDPKIANAIMKAADEVAEGKLNDHFPLVVWQTGSGTQTNMNVNEVISNRAIEMLGGELGSKIPVHPNDHVNKSQSSNDTFPTAMHIAAAIEVHEVLLPGLQKLHDALDAKSKEFAQIIKIGRTHTQDAVPLTLGQEFSGYVQQVKYAMTRIKAAMPRIYELAAGGTAVGTGLNTRIGFAEKVAAKVAALTGLPFVTAPNKFEALAAHDALVELSGAMNTTACSLMKIANDIRFLGSGPRSGLGELILPENEPGSSIMPGKVNPTQCEAMTMVAAQVMGNHVAVTVGGSNGHFELNVFKPMMIKNVLHSARLLGDASVSFTENCVVGIQANTERINKLMNESLMLVTALNPHIGYDKAAKIAKTAHKNGSTLKETAIELGYLTAEQFDEWVKPKDMLGPK | soluble |
| MHHHHHHSSGVDLGTENLYFQSMVKPAGPTVEQQGEMARSGGRMLATLEPEQRAEIIHHLADLLTDQRDEILLANKKDLEEAEGRLAAPLLKRLSLSTSKLNSLAIGLRQIAASSQDSVGRVLRRTRIAKNLELEQVTVPIGVLLVIFESRPDCLPQVAALAIASGNGLLLKGGKEAAHSNRILHLLTQEALSIHGVKEAVQLVNTREEVEDLCRLDKMIDLIIPRGSSQLVRDIQKAAKGIPVMGHSEGICHMYVDSEASVDKVTRLVRDSKCEYPAACNALETLLIHRDLLRTPLFDQIIDMLRVEQVKIHAGPKFASYLTFSPSEVKSLRTEYGDLELCIEVVDNVQDAIDHIHKYGSSHTDVIVTEDENTAEFFLQHVDSACVFWNASTRFSDGYRFGLGAEVGISTSRIHARGPVGLEGLLTTKWLLRGKDHVVSDFSEHGSLKYLHENLPIPQRNTN | soluble |
| MHHHHHHSSGVDLGTENLYFQSNAMELKDYYAILGVQPTDDLKTIKTAYRRLARKYHPDVSKENDAEAKFKDLAEAWEVLKDEQRRAEYDQLWQHRNDPGFGRQRQTHEQSYSQQDFDDIFSSMFGQQAHQRRRQHAARGHDLEIEVAVFLEETLAEQTRTISYNLPVYNVFGMIESETPKTLNVKIPAGVVDGQRIRLKGQGTPGENGGPNGDLWLVIHIAPHPLFDIVGHNLEIVLPLAPWEAALGAKVTVPTLKESILLTVPPGSQAGQRLRIKGKGLVSKTHTGDLFAVIKIVMPTKPDEKARELWQQLAAAEASFDPRKTWGKA | soluble |
| MHHVYVIECSDGTYYTGYTTDVQRRVAEHNAGDGAKYTRGRTPVTLRHTESFDSKSEAMRREYRIKQLSRAQKEALFLEHHHHHH | soluble |
| MHKLLISLMMLLSFQAFSQVQEYTLNNGLKVLVKEDHRAPVVVSMIWYNVGSADEPVGITGVSHAIEHMMFKGTSKYPVGVFSKTIAALGGQENAFTNNDYTAYYEKLDAGHLATSFELEADRMNNLLLNSEEFAKEIKVIQEERRLRTDNNPQALAFERFLATAHLTAPYNHPVIGWMNDLKQMKVEDLKKWYESYYAPNNATLVVVGDVNPEKVHALAEHYFGSIAKRPIASRKPQQEPSALGKKMVYINAPAKLPLLLIGYTVPSVKTAKNNWEPYALEIIAGILDAGESARFAKHLVRGNQVATGAEAYYNLYSRYQSQFIVYGAPSQDHQIKDLEKALITELEALKKAPVSNQELQRVKNQIIAQKTFEKDSIFGQAMELGLLETIGLGWKNTETYTKAINEITPEQIQQVAQRYFQENNMTVAELKPIRQEEVRP | not soluble |
| MHLHISSIPHRNSNNSKGGVLDATGPMLSAKRGALLLQAYHRPGEVISYKAGDYHLVPKKFTVGKRIAVRSYLDRNRTELSDRTFMPQKNWFRPYDLQDGCFDRDHERLSYRFYNLETKVIWKAFDTPELIGMLLHDETVKGNSGMYAPDMLDAALHYTREARYWRCIGITKPFYDRNTLRAHCWEDNGLQVGTLVMSQAMRHALMDLERAVRRKELGLEPNYLWDRWGPIGFIDGARADYLPRFEHNPYVDPDGVDVTEIDVLPFNTHEQIRERYRDFIEPDTAPFEEVFRSPSHGSLTTLADIPNASVVALYKDLKLKAGTPVAGDAVELAPADVRTLFYLSANPEWRAVADGKASWEEVVDAMQPVQAELDEKIDAARLLQNTRHNAERVRAFFEEKCGFHDFMYTPDKTITAAVLCYLTELRRICTETAWGAALAKCLTDMERVQGMGRDAFLVYRHIEDAILDKKRRLWAGRFAGESHEESTLDYLLENFGRRAERPRNVGTTGVEFDREQEPIGRQVQRRVLDSDKANKLAEIRRSRGKMWSKKRSVFDALHEKQLQNFNYGVH | soluble |
| MHPDQKKTFKEKNDIRKKLFNSTKEERLDWRKMKDEKKRKNEEKIIKEAEEAKKAKIEKVDHTPPFTISIAVPGQFLNNAQSAELRTYMAGQIARAATLYRVDEIIIYDESCRMTDEAVNAYYNGTWQGNLIPAETNYEGCFYLAKILEYLECPQYLRKDLFPIQKPLKNAGLLNPLDAQHHLKYDEKTLRFREGVVLKKRSKDGRGPICNIGLEKEFEIDSDAVQLPPYTRVTVEIKNLTEQCKLYRGSITSGATVTRETGLYWGYSVRLMTGLQKVLQAKKFDIVAGVSPRGKLASQMDVCILNKPKILLVFGGVAGVDAAVESEELAEWRRAEDAFDVLIRTTSLSNGSRSERVEENVLSVLAQVQCHLETLNAL | not soluble |
| MHQLWTYDPAAGTVEVGAGTTNEGLVDGPGEEAWFAQPSGLAATADRLWLADSETSALRWVDLDGAVHTAVGTGLFDFGHRDGDAEQALLQHPLGVTALPDGSVAVSDTYNHALRRYDPATGEVTTLATDLREPSDAVLVGDDIVVVESARHRLTRLRLPEEAVRVASVAHRTQRAATEVAPGRLQLDVIFQAPAGQKLDTRYGPSTRLLVSSTPPELLLNGEGADPDLSRTLELNPAIPEGVLHVSAMAASCDDDPANEYPACHVHQQDWGVPVRLTEGGADRLPLVLAGMDALEHHHHHH | not soluble |
| MHQRCNTRGGQDMGFDSRAAKKLKAMFKQQCRDAGAVCWLCGQPINYDAPPNSRDSFEPDHFYPQATHPELAEDPENLRPSHCSCNRSRKDGVPAPSLGSLSEQW | not soluble |
| MHRVHGTLHASFTIECRNMFKRFFLALIGVGILLSESTQASESPPYSMVLLTENFPPFNMAVDGKNFAQENNIDGIAAEVVREMFKRANIGYSMTLRFPWDRVYKLALDKPGYGVFSTTRLPEREKLFKWIGPLGSYDWIMLARGDSPITLASLEQAKDYRIGAYKGDAIGERLNAMGLNPILMLRDRDNVKKLANGQIDLWAVGDPVGRYLAKLEGVSGFKTALRFNSAELYLAVNKSTPDEIVNRLQAALDQMRTEGWVDAVKARYQLEHHHHHH | soluble |
| MHSAVFSPDAPYCGAAGSNHLCEAVALCQSILARYRRTGTSFSSTELKAIQALRTEFPDTAQEPAANSAASPDQTTKDFLSILDDATDVPHNPQNDIVAFVEECCDNTKEPTVLFAAINERISAVTCSRNVRTYMVIANDNLLWDPVNGVAALIDDVTPLGKCAQARNMLTIANTLYIPLWFRSELVGCVEVPGACIPRDKATCAQLLLRCVTVAVRNSINISIRKREANKIEAMVGMATRLARDTLEESVLVQSIINTAKTLTESDRCSIFLVKADGSLEAHFEDGNVVVLPAGTGIAGHVAESGAVVNIPNAYEDDRFHRSVDKVTGYHTRTILCLPIAFEGTIVAVAQLINKLDMVTQSGQRLPRVFGRRDEELFETFSMFAAASLRNCRINETLLKEKKKSDAILDVVALLSNTDIRDVDSIVRHVLHGAKKLLNADRSSMFLLDKERNELYSKMADSANEIRFPCGQGIAGTVAESGVGENIMDAYADSRFNSAVDRQLGYRTQSILCEPITLNGEVLAVVQLVNKLGDDGSVTCFTPMDRETFQVFSLFAGISINNSHLLEFAVNAGREAMTLSLQRNSITAQRAPKSVKVIAVTPEEREAVMSIDFGGAYDFTSPGFNLFEVREKYSEPMDAAAGVVYNLLWNSGLPEKFGCREQTLLNFILQCRRRYRRVPYHNFYHVVDVCQTLHTYLYTGKASELLTELECYVLLVTALVHDLDHMGVNNSFYLKTDSPLGILSSASGNNSVLEVHHCSLAIEILSDPAADVFEGLSGQDVAYAYRALIDCVLATDMAKHADALSRFTELATSGFEKDNDTHRRLVMETLIKAGDVSNVTKPFETSRMWAMAVTEEFYRQGDMEKEKGVEVLPMFDRSKNNELARGQIGFIDFVAGKFFRDIVGNLFHGMQWCVDTVNSNRAKWQEILDGRRDSIRSSIV | not soluble |
| MHVIDLSYFVKIYRSKNKHISVNFLRHLHRAGDLHLSGTTRCIYEDVIMKKCLTLLIATVLSGISLTAYAAQPMSNLDSGQLRPAGTVSATGASNLSDLEDKLAEKAREQGAKGYVINSAGGNDQMFGTATIYK | soluble |
